Laboratory results as given in patent US20110269680A1 (PANACEA BIOTEC, published 2011).
Numbered stars: 1 amine (or outer) side, 2 acyl side, 3 side chain; on linkers, the order of the positions; unused ones are H or OH. Square brackets hold non-standard residues; d marks the D form. Ends that are not written are not given here. X2 = 2‑amino‑1‑O‑methyl‑2‑deoxy‑alpha‑D‑glucopyranuronic acid, CO[C@H]1O[C@H](C(=O)[*:2])[C@@H](O)[C@H](O)[C@H]1N[*:1]; 2Furoyl(5-aminomethyl) = O=C(c1ccc(CN[*:1])o1)[*:2]; Aib = CC(C)(N)C(=O)O

B1: Seq ID No. 12 (peptide)
peptide: H[2Furoyl(5-aminomethyl)]GTFTSDVLSYQEGQAAKLFIEWLVKGR-NH2
B2: Seq ID No. 05 (peptide)
peptide: HGEGTFTSDXSSYLEGQAAKEFIXWLVKGR
modifications: Xaa1 at position 10 and Xaa2 at position 24 are dialkylated aminoacid (alpha-aminoisobutyric acid); C-terminal amide (Arg-NH2)
B3: Seq ID No. 10 (peptide)
peptide: H[2Furoyl(5-aminomethyl)]GTFTSD[Aib]SSYLEGQAAKEFI[Aib]WLVKGRG-NH2
modifications: N-terminus assumed
SMILES: CC[C@H](C)[C@H](NC(=O)[C@H](Cc1ccccc1)NC(=O)[C@H](CCC(=O)O)NC(=O)[C@H](CCCCN)NC(=O)[C@H](C)NC(=O)[C@H](C)NC(=O)[C@H](CCC(N)=O)NC(=O)CNC(=O)[C@H](CCC(=O)O)NC(=O)[C@H](CC(C)C)NC(=O)[C@H](Cc1ccc(O)cc1)NC(=O)[C@H](CO)NC(=O)[C@H](CO)NC(=O)C(C)(C)NC(=O)[C@H](CC(=O)O)NC(=O)[C@H](CO)NC(=O)[C@@H](NC(=O)[C@H](Cc1ccccc1)NC(=O)[C@@H](NC(=O)CNC(=O)c1ccc(CNC(=O)[C@@H](N)Cc2c[nH]cn2)o1)[C@@H](C)O)[C@@H](C)O)C(=O)NC(C)(C)C(=O)N[C@@H](Cc1c[nH]c2ccccc12)C(=O)N[C@@H](CC(C)C)C(=O)N[C@H](C(=O)N[C@@H](CCCCN)C(=O)NCC(=O)N[C@@H](CCCNC(=N)N)C(=O)NCC(N)=O)C(C)C
B4: Seq ID No. 04 (peptide)
peptide: H[2Furoyl(5-aminomethyl)]EGTFTSD[Aib]SSYLEGQAAKEFI[Aib]WLVKGR-NH2
modifications: N-terminus assumed
SMILES: CC[C@H](C)[C@H](NC(=O)[C@H](Cc1ccccc1)NC(=O)[C@H](CCC(=O)O)NC(=O)[C@H](CCCCN)NC(=O)[C@H](C)NC(=O)[C@H](C)NC(=O)[C@H](CCC(N)=O)NC(=O)CNC(=O)[C@H](CCC(=O)O)NC(=O)[C@H](CC(C)C)NC(=O)[C@H](Cc1ccc(O)cc1)NC(=O)[C@H](CO)NC(=O)[C@H](CO)NC(=O)C(C)(C)NC(=O)[C@H](CC(=O)O)NC(=O)[C@H](CO)NC(=O)[C@@H](NC(=O)[C@H](Cc1ccccc1)NC(=O)[C@@H](NC(=O)CNC(=O)[C@H](CCC(=O)O)NC(=O)c1ccc(CNC(=O)[C@@H](N)Cc2c[nH]cn2)o1)[C@@H](C)O)[C@@H](C)O)C(=O)NC(C)(C)C(=O)N[C@@H](Cc1c[nH]c2ccccc12)C(=O)N[C@@H](CC(C)C)C(=O)N[C@H](C(=O)N[C@@H](CCCCN)C(=O)NCC(=O)N[C@@H](CCCNC(=N)N)C(N)=O)C(C)C
B5: Seq ID No. 06 (peptide)
peptide: H[X2]EGTFTSDVSSYLEGQAAKEFIAWLVKGR-NH2
B6: Seq ID No. 08 (peptide)
peptide: H[2Furoyl(5-aminomethyl)]GTFTSDVSSYLEGQAAKEFIAWLVKGR-NH2
modifications: N-terminus assumed
SMILES: CC[C@H](C)[C@H](NC(=O)[C@H](Cc1ccccc1)NC(=O)[C@H](CCC(=O)O)NC(=O)[C@H](CCCCN)NC(=O)[C@H](C)NC(=O)[C@H](C)NC(=O)[C@H](CCC(N)=O)NC(=O)CNC(=O)[C@H](CCC(=O)O)NC(=O)[C@H](CC(C)C)NC(=O)[C@H](Cc1ccc(O)cc1)NC(=O)[C@H](CO)NC(=O)[C@H](CO)NC(=O)[C@@H](NC(=O)[C@H](CC(=O)O)NC(=O)[C@H](CO)NC(=O)[C@@H](NC(=O)[C@H](Cc1ccccc1)NC(=O)[C@@H](NC(=O)CNC(=O)c1ccc(CNC(=O)[C@@H](N)Cc2c[nH]cn2)o1)[C@@H](C)O)[C@@H](C)O)C(C)C)C(=O)N[C@@H](C)C(=O)N[C@@H](Cc1c[nH]c2ccccc12)C(=O)N[C@@H](CC(C)C)C(=O)N[C@H](C(=O)N[C@@H](CCCCN)C(=O)NCC(=O)N[C@@H](CCCNC(=N)N)C(N)=O)C(C)C
B7: Seq ID No. 07 (peptide)
peptide: H[X2]GTFTSDVSSYLEGQAAKEFIAWLVKGR-NH2
modifications: N-terminus assumed
SMILES: CC[C@H](C)[C@H](NC(=O)[C@H](Cc1ccccc1)NC(=O)[C@H](CCC(=O)O)NC(=O)[C@H](CCCCN)NC(=O)[C@H](C)NC(=O)[C@H](C)NC(=O)[C@H](CCC(N)=O)NC(=O)CNC(=O)[C@H](CCC(=O)O)NC(=O)[C@H](CC(C)C)NC(=O)[C@H](Cc1ccc(O)cc1)NC(=O)[C@H](CO)NC(=O)[C@H](CO)NC(=O)[C@@H](NC(=O)[C@H](CC(=O)O)NC(=O)[C@H](CO)NC(=O)[C@@H](NC(=O)[C@H](Cc1ccccc1)NC(=O)[C@@H](NC(=O)CNC(=O)[C@H]1O[C@H](OC)[C@H](NC(=O)[C@@H](N)Cc2c[nH]cn2)[C@@H](O)[C@@H]1O)[C@@H](C)O)[C@@H](C)O)C(C)C)C(=O)N[C@@H](C)C(=O)N[C@@H](Cc1c[nH]c2ccccc12)C(=O)N[C@@H](CC(C)C)C(=O)N[C@H](C(=O)N[C@@H](CCCCN)C(=O)NCC(=O)N[C@@H](CCCNC(=N)N)C(N)=O)C(C)C
B8: Seq ID No. 09 (peptide)
peptide: HXEGTFTSDXSSYLEGQAAKEFIXWLVKGRG
modifications: Xaa1 at position 2 is furan aminoacid (5-aminomethyl-furan-2 carboxylic acid); Xaa2 at position 10 and Xaa3 at position 24 are dialkylated aminoacid (alpha-aminoisobutyric acid); C-terminal amide (Gly-NH2)
B9: Seq ID No. 11 (peptide)
peptide: HXGTFTSDVSSYLEGQAAKEFIAWLVKXR
modifications: Xaa1 at position 2 is furan aminoacid (5-aminomethyl-furan-2 carboxylic acid); Xaa2 at position 28 is dialkylated aminoacid (alpha-aminoisobutyric acid); C-terminal amide (Arg-NH2)
B10: Seq ID No. 02 (peptide)
peptide: H[2Furoyl(5-aminomethyl)]GTFTSDVSSYLEGQAAKEFIAWLVKGRG-NH2
modifications: N-terminus assumed
SMILES: CC[C@H](C)[C@H](NC(=O)[C@H](Cc1ccccc1)NC(=O)[C@H](CCC(=O)O)NC(=O)[C@H](CCCCN)NC(=O)[C@H](C)NC(=O)[C@H](C)NC(=O)[C@H](CCC(N)=O)NC(=O)CNC(=O)[C@H](CCC(=O)O)NC(=O)[C@H](CC(C)C)NC(=O)[C@H](Cc1ccc(O)cc1)NC(=O)[C@H](CO)NC(=O)[C@H](CO)NC(=O)[C@@H](NC(=O)[C@H](CC(=O)O)NC(=O)[C@H](CO)NC(=O)[C@@H](NC(=O)[C@H](Cc1ccccc1)NC(=O)[C@@H](NC(=O)CNC(=O)c1ccc(CNC(=O)[C@@H](N)Cc2c[nH]cn2)o1)[C@@H](C)O)[C@@H](C)O)C(C)C)C(=O)N[C@@H](C)C(=O)N[C@@H](Cc1c[nH]c2ccccc12)C(=O)N[C@@H](CC(C)C)C(=O)N[C@H](C(=O)N[C@@H](CCCCN)C(=O)NCC(=O)N[C@@H](CCCNC(=N)N)C(=O)NCC(N)=O)C(C)C
B11: Seq ID No. 03 (peptide)
peptide: H[2Furoyl(5-aminomethyl)]EGTFTSDVSSYLEGQAAKEFIAWLVKGR-NH2
B12: Seq ID No. 01 (peptide)
peptide: H[2Furoyl(5-aminomethyl)]EGTFTSDVSSYLEGQAAKEFIAWLVKGRG-NH2

These binders were tested against GLP-1 receptor (assay: cell-based or functional assay).

In order of rising “EC50, Receptor Functional assay (intracellular cAMP in CHO/GLP-1R cells)” value:
1. B10  0.043 nM
2. B7  0.056 nM
3. B11  0.061 nM
4. B4  0.072 nM
5. B2  0.083 nM
6. B9  0.102 nM
7. B12  0.103 nM
8. B6  0.601 nM
9. B5  0.838 nM
10. B8  1 nM
11. B1  2.24 nM
12. B3  3.38 nM
